Data: patent publication US20030203372A1, “Analysis method” (priority 2000, published 2003)

Biological target: HIF1α (hypoxia-inducible factor 1 alpha) (UniProt Q16665)
Assay: cell-based or functional assay

HIF1α activity measured in Luciferase units from the HRE-Luc reporter, 293T cells in normoxia, co-transfected with CMV-HIF and CMV-SVFL1 (CMV-HIF with HRE-Luc alone: 20953 Luciferase units) (Luciferase units): 918
Substance: EGL nine (C.elegans) homolog 3 (EGLN3), full length (from UniProt Q9H6Z9 1-239)
